Results: the DeepSol protein solubility set

Test: soluble on expression in E. coli; label from the status in PepcDB or PDB records

Sequence | soluble on expression in E. coli
QSTIKIVLIEDTKTLDEVVVIGYGTQKKSDVSGSVTSVSGDKLSKIPTANAEMALQGMAPGLSVNFGSGAAGSSATLQVRGVTSWKDDDGENSESNGPLVIIDGVPGNMSYLNPEDIKSISVLKDAATAAIYGSRSAAGVILIETHRGT | not soluble
MGSDKIHHHHHHMSEITTLQPSLLWKWFDQICAIPHPSHYEDTLANFIVNWAKEKHFFVERDEVGNVLIRKPATKGMENHTPVVLQAHLDMVPQANEGNPHDFTKDPIQPYIDGEWVKARGTTLGSDNGIGLASTLAVLESNDLAHPPLEVLLTMTEETGMDGAKGLRHNWLQSEILINTDTEEIGEIYIGCAGGINANFEIPVQYETNTFEHSAQITLKGLRGGHSGGDIHTGRANAIKVLARVLAKLSQNQPHFALSEIRGGSIRNAIPREAAAVLAFNGDVKTIESAVENLAVVLKEELAIAEPNFTLFVESAEKAPTVFTAQSTQTVINALNVLPNGVIRNSDVVKNVVESSLSVGVLKTEGNVVKSTILVRSLIESGKYYVTEMLSSLAILANAKVEFSAPYPGWQPVNDSTILDVTRKHYAEVLGEQPVVKVIHAGLECGLLKEHYPNIEMISVGPTIRNAHSPDEKVEIATVQTYWDLLTRVLADIPAK | not soluble
MPTLGFRFRAYTDEQTLRALKAQLKLACKIYNTLRWADIYFYQRDGKGLTQTELRQLALDLRKQDDEYKQLYSQVVQQIADRYYEAKKRFFEGLARFPKEKKPHKYYSLVYTQSGWKILHVREIRKGSKKNKKKLITLKLSNLGTFKVIVHRDFPLDKVKRVVVKLTRSERIYITFVVEGYEFPKLPNTGKVVAIDVGVEKLLVTPDGEYFPNLRPLEKALWKVKHLHRELSRKKFLSNNWFKAKVKLARAYEHLKNLRSDLYMKLGKWFAEHYDVVVMEGIHAKQLVGKSLRSLRRRLSDVGFGELRDVLKYQLEKYGKKLILVNPAYTSKTCARCGYVKNDLSLSDRVFVCPNCGWIADRDYNASLNILKGAGSERSLVPVELRPLPVPALRYWHGRAVKQEAPSFMRGLEHHHHHH | soluble
MCHEEVFSCCRTRTFHFLRSYGHDGWRNDGRNDERKADVSAHVLLPLHDAYDADDVHDADDGYALHGYEPHDGNDEHADDGSGNHEDCNRTQAKVYEGTYGKTPEENEKVIFSSFFPLFLEE | not soluble
MGSDKIHHHHHHMGGLGARHLYGSALGEHLVFKGGTSLSKAYQVIQRFSEDVDLTYDIRAIAPDLVGDDGEALPETRSEEKRWSSEVRKRLPNWVEGSVQPIIADALAAEALAAAIRVEGEKLFIDYAAATAGSGYVAPSVILEFGARSTGEPASLRDIACDASGLIEGVTFPTARPRVMHAERTFWEKATAIHVFCLQERLRGDRFARHWHDVARLDETGFTPSAFADRDLANAVARHKTMFFAEKAPDRTPIDYAAAVNGGLRLVPAGDGLKALEEDYARMVDDGLLLEDAEPFEALMARCADIAERANYIRE | not soluble
MGSDKIHHHHHHMLTQLQCPSCGGRLLSNKEGRNSILCQSCKKEFSAREGVLCFVPDNVFTQLDNIDYDKHYSISDESSQQAFASLKGVLGNRLKNNYGVLLEIGAGTGGFTKGLLTNIKVNRAIVTDISPKMLSICRKRVLGESHLADDVIFATYSTGENILPSNSIDCIIGSFVLHHILDYKSFIRKSYDLLKKDGAFIFSEPCYKFHDALVLTMSEILETLIGEGDNSEVDLTRLSNWIHELHFNLKYVGDQDVLSGREDKHLFIRSEVENSAFDVGFELVEILPYGDPDAINQCLLSYLPQLDLSHIFLQKVSNLFDLYHIKYFGLIEREDAVPAYVFFFKKKMNLFSRLFKNV | not soluble
MGSDKIHHHHHHMFWFKNALIYRLTKSLDWSVENLQSQLQQCAYSPCQQSDMSRFGWSNPLRESESLSFCVGKQLLLVAHKEEKILPAQVIKRELEERIEQLEQKENRKLKKIEKQALKDDIVATLLPRAFSKNQHTALWIDTENNLIYIDTASTKRAEDCLALLRKSLGSLPVVPLAFANEPSLVMTNWVKENSPQWLTVLEEAELKGSQDQAVIRCKQQVLDSEEMIGLLNSGKYITNLSLNWEEHLSFTLNEDASLKRLKFADQIREQNDDISKEDFAQRFDADFVLMTGILAKLTENLLDEFGGEKERL | not soluble
MGSDKIHHHHHHMKLSRLKRKHKRVISVGKIAEQFWCEMKVELKLLYDIKPSNALVRKGKRIHDEISGKASLPRPKNFIDWLGGQIYFTNLSIESFLKSGLGREVFLVTKVDGDGWRWYLSGSIDEIRKKGGRTQVVERKTRLREEVPENESHKVQGLLYHLMLDEARRQKVSRNVKRAYGVVERAAISKEFSQAVGMTERNVKAMLRTLDSKLPMIPELDEEVVVIYESQKTGERIGEVRFKAQREEIERILQFSREYWAGEREALKTRENWKCRFCEVRKYCL | not soluble
MSHVTAAPNVLAASAGELAAIGSTMRAANAAAAAPTAGVLAAGGDDVSAGIAALFGARAQAYQAISAQAALFHDRFVQILQEGAAAYAMAEAANALPLQKAQGVVSELAQDRTGGTGTGQSRGAGGFGGVGQAGGKGWDGGPIGNGQVGEQHGAGQLGSTDGNPGVAGAAHGSGVSASHGSGATGAAGVADPGGSGAGVGSAAGNGTGAGSADAVGGAGTGRDIVGSVRGDGGVGMASGDGGLSTGAAGASAEGGLMPGFGGAPWVGGHWGLGGEGHSGAIGGVGEQVAPAVATAPAVSPATTSAVAAESGSTPATKAQAMHATTNPGNAAHQGNPADPGNSARRADGGRDEQLLLLPLTSLRGLRHTLKKLSGLRARNGLLTASGDNASGSGRPWDRDQLLRALGLRPPGHE | not soluble
MAHHHHHHMSDLDKIRSKLEALKSKTEVKTDERIEIAKKNDPFNDLKVHILNVLDETRKCIREKESLQNVHGNNIEVIKRGNIIYNNMKNLDTYFLKLEEILKKQEKKKYAYSREELFDKNETFELLKRQIYECKKLSNYEHIKDTCVMDFSDFKNKQQVESKS | soluble
MSDWSPMHEAAIHGHQLSLRNLISQGWAVNIITADHVSPLHEACLGGHLSCVKILLKHGAQVNGVTADWHTPLFNACVSGSWDCVNLLLQHGASVQPESDLASPIHEAARRGHVECVNSLIAYGGNIDHKISHLGTPLYLACENQQRACVKKLLESGADVNQGKGQDSPLHAVARTASEELACLLMDFGADTQAKNAEGKRPVELVPPESPLAQLFLEREGPPSLMQLCRLRIRKCFGIQQHHKITKLVLPEDLKQFLLHL | soluble
MALTSFLPAPTQLSQDQLEAEEKARSQRSRQTSLVSSRREPPPYGYRKGWIPRLLEDFGDGGAFPEIHVAQYPLDMGRKKKMSNALAIQVDSEGKIKYDAIARQGQSKDKVIYSKYTDLVPKEVMNADDPDLQRPDEEAIKEITEKTRVALEKSVSQKVAAAMPVRAADKLAPAQYIRYTPSQQGVAFNSGAKQRVIRMVEMQKDPMEPPRFKINKKIPRGPPSPPAPVMHSPSRKMTVKEQQEWKIPPCISNWKNAKGYTIPLDKRLAADGRGLQTVHINENFAKLAEALYIADRKAREAVEMRAQVERKMAQKEKEKHEEKLREMAQKARERRAGIKTHVEKEDGEARERDEIRHDRRKERQHDRNLSRAAPDKRSKLQRNENRDISEVIALGVPNPRTSNEVQYDQRLFNQSKGMDSGFAGGEDEIYNVYDQAWRGGKDMAQSIYRPSKNLDKDMYGDDLEARIKTNRFVPDKEFSGSDRRQRGREGPVQFEEDPFGLDKFLEEAKQHGGSKRPSDSSRPKEHEHEGKKRRKE | soluble
MGSDKIHHHHHHMKVKDLLNITDEDELKKYRVFRALSRFNYFPNQKQAIGELPDCFTTSSLTPEVCLRLLSGGIDNKRKNTGFAPVEYKSTRYNNIPRVLSLVHPVAHAQLCKHIYENWQDIEYISANTISRVRPEFYEVDKRIVVMNYDDPIVKDRKFNDITFGKKYIVNADIASCFDSIYSHSIPWAIKGYEFAKNNRGENEWFNQFDKFLRTTKRCETNGMPIGPATSSICLEIILARVDSRLHDLGFEHERYVDDFCCYCSTKEQADEFIIKLSELLAEYRLSLNLRKTTIIELPIASTDDWIVELNSLCIDRYNADGDLVLIGAKEAINIINKAVFLSQSHKDGSVIKFAVGFLVKKLADTAYQDVFECLLSLSFHYPILIPYLSILLGRGNLEAQHYVDKFQMIIEENALHKRSDGMAWPLHIFREHNIEPTQEIVDRVLETKDCVAITILQDICPDNENIRQFVVDISNDLDIKKDEYWLLLYQSYLLGHINNPYRDRCFIVLKDYGVNFFKTDSRTKFEMRCDNVGAVWAFKELEEIKQPQAKAVNI | not soluble
MEWKPNRADKTPVYKQIADYIERGISSGEFPSDSKLPSERMLAKELQVNRSTIVAAYEELKSLGVVERQKGSGTRVNTDIWGVSHKRIPNWGRYVEDGSFLPNVPLVQQIRTETQKDDLINLASGELSPELIPSDRFRTILSEKTFMENLGYDHPLGNEMLRKTIAAHVQQYKQIEADSSSILITSGAQQALNLIVQCLLKPGDAIAIEDPSYCFSLPMFKSAGLNIFHLPVDEHGMNPDDLIDLHKKHRIRMVFLNPDYQNPTGTVLSLARRKKILELSSEFGIPIVEDDPYSLISFNGEVNPTLKSMDQNGNVLYISSLSKIVASGLRIGWIIGPTRVIERLADAKQQVDFGHSVFTQWVANQFLESKDFHKHITILRGQLKQRRDVLIAELEGTLGDRVECFVPEGGIHVWCKVKGKFDEYHLLGESIQNGVAFVPGSVLGSKNEYIRFTFGRANIEQIQLGIKRFADTLNEIS | not soluble
SAGPQQQPPYLHLAELTASQFLEIWKHFDADGNGYIEGKELENFFQELEKARKGSGMMSKSDNFGEKMKEFMQKYDKNSDGKIEMAELAQILPTEENFLLCFRQHVGSSTEFMEAWRKYDTDRSGYIEANELKGFLSDLLKKANRPYDEPKLQEYTQTILRMFDLNGDGKLGLSEMSRLLPVQENFLLKFQGMKLTSEEFNAIFTFYDKDRSGYIDEHELDALLKDLYEKNKKEMNIQQLTNYRKSVMSLAEAGKLYRKDLEIVLCSEPPM | soluble
MGSDKIHHHHHHMSLNLRDLEYFYQLSKLRSFTNVAKHFRVSQPTISYAIKRLETYYDCDLFYKDSSHQVVDLTPEGELLAMRTNEILSELNHTKKAIHRSSMKDFKVGFPPIISSYLLSKQDNLNFFNALHMIYGGSNELLSLLLNEEIDSSLLGSLEKIKHPQLEIEELFQKEFFIIMSDSHPLANEKELGFKDLLNEDFILLGEHNIHFNAFNRLNEKYNQSANVVLKLDDAHTIKELVRKNLGISLMADIRLSEDFKNLVKVPFIEEDKQFFHINYAYQKNSILSESEKNFLEILKTLK | not soluble
ENKTLDEVTSDLVSRGAKFVGEELQLDVGGLLLHFFNYNGKIVVSSMKKVGFLQTLNRKRLENHPSFVFLEKEVPKSVFLEVFVDLYTLFDKLLGFSPRSSLLLIGYEEDGLIKYRLEVM | not soluble
MSLVKAVLFDIDGTLLSEKPLIMFILPQVYDELANKLNISRMEARRIFLSEIEKRKGKYEWHDWNFFFRLFSLPFKYEDFIMKYPTKIEVFPGVVEVLKYLKERGYRLGIVTSGPRYQVLKLKVSGIYRYFDVVVTRDDVGSIKPEPRIFLAALEKLKISPKDAVMVGDSLEQDILGAKGVGMKSVWINVGGENGYNLPDFEISSILQLPEVIEDESDIEGHHHHHH | soluble
